This note sets out measurements from the supplement of paper PMC10567573.

The nature of this data set: protein stability index of a GFP-peptide fusion (GPS, HEK-293T) (PSI 1-6); higher = more stable. Conditions: c terminus: a fixed tail appended.

± gives the standard deviation.
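Also: 24-mer peptide tiles fused after GFP, lentivirally expressed, FACS-sorted into six equal bins by GFP/DsRed ratio, decoded by Illumina sequencing, PSI is the read-weighted mean bin number.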

On to IYVIGDLDTGTNYDYVREFKRSTG [GAN], for which the protein stability index by setting is: (treatment: DMSO) 2.18 ± 0.43; (treatment: MLN4924 1 uM, 8 h) 2.04 ± 0.43.

Take IYVVGGYSWNNRCMVEIVQKYDPD [KLHL13]: the protein stability index (treatment: DMSO) came to 2.99 ± 1.6 and the protein stability index (treatment: MLN4924 1 uM, 8 h) was determined as 2.91 ± 1.3.

On to KCKSTLSPPEASPGPPAAPRARRR [PWWP2B], for which the protein stability index (treatment: DMSO) came out at 5.19 ± 0.12 and the protein stability index (treatment: MLN4924 1 uM, 8 h) amounted to 5.34 ± 0.26.

Regarding KCLLYCNGVLEPLYLCPNGARCAT [SLC25A39], the protein stability index reads like this: (treatment: DMSO) 2.24 ± 0.11; (treatment: MLN4924 1 uM, 8 h) 2.11 ± 0.27.

For KDAAKQIAWIKDKLLHIYYQNSID [PDS5B], the protein stability index reads like this: (treatment: DMSO) 1.78 ± 0.31; (treatment: MLN4924 1 uM, 8 h) 2.39 ± 0.26.

For the sequence KDEPSKYNQQQALIDQRYFQVLCS [CEP70], the protein stability index reads like this: (treatment: DMSO) 3 ± 0.063; (treatment: MLN4924 1 uM, 8 h) 3.13 ± 0.24.

Turning to KDGVTMAPAFRLSLKAKVSDNMSH [FSD1], the protein stability index is 3.56 ± 0.35 (treatment: DMSO) and 3.75 ± 0.26 (treatment: MLN4924 1 uM, 8 h).

Regarding KDIQPYMRRMVATWMLEVCEEQKC [CCND2], the protein stability index (treatment: DMSO) amounted to 2.33 ± 0.24 and the protein stability index (treatment: MLN4924 1 uM, 8 h) amounted to 2.65 ± 0.3.

KDIVQTVRSRLEEAGIKVHDVRLN [TENT5C]: the protein stability index was 2.44 ± 0.35 (treatment: DMSO) and 2.78 ± 0.28 (treatment: MLN4924 1 uM, 8 h).

In the case of KDPSAIGKKQVPCFASMLTKKLHF [CASP6], the protein stability index is, setting by setting: (treatment: DMSO) 2.23 ± 0.14; (treatment: MLN4924 1 uM, 8 h) 2.36 ± 0.16.

As to KDTDLARVRRFQVVEVTKGILEHV [M1AP], the protein stability index runs as follows: (treatment: DMSO) 2.55 ± 0.47; (treatment: MLN4924 1 uM, 8 h) 2.86 ± 0.56.

As to KEDQFGRTPLMYCVLADRLDCADA [INVS], the protein stability index runs as follows: (treatment: DMSO) 3.12 ± 0.41; (treatment: MLN4924 1 uM, 8 h) 3.26 ± 0.3.

Regarding KEGGQAGSGQRVPALEEAPDSHQK [ELOA2], the protein stability index came to 5.32 ± 0.21 (treatment: DMSO) and 5.47 ± 0.28 (treatment: MLN4924 1 uM, 8 h).

On to KELRKDYQGPGTRRLQEVLGVQTG [DYRK1B], for which the protein stability index is 4.07 ± 0.16 (treatment: DMSO) and 4.42 ± 0.17 (treatment: MLN4924 1 uM, 8 h).

KEYEKALKYVRGLLQTEPQNNQAK [FIS1] registered a protein stability index (treatment: DMSO) of 2.86 ± 0.14 and a protein stability index (treatment: MLN4924 1 uM, 8 h) of 3 ± 0.45.

Consider KGCKVTLPEKPVKLASHTRDTTGV [FBF1], for which the protein stability index is, setting by setting: (treatment: DMSO) 4.21 ± 0.24; (treatment: MLN4924 1 uM, 8 h) 4.58 ± 0.17.

KGKKLYPVVSAVWGHCEVTMRYIN [SPSB4]: the protein stability index came out at 2.43 ± 0.82 (treatment: DMSO) and 2.65 ± 0.6 (treatment: MLN4924 1 uM, 8 h).

Consider KGRTIYLEDIYVMPEYRGQGIGSK [SAT2], for which the protein stability index runs as follows: (treatment: DMSO) 2.44 ± 0.31; (treatment: MLN4924 1 uM, 8 h) 2.79 ± 0.12.

Regarding KHLARQLEEKDRVLKKQDAFYKEQ [CHCHD3], the protein stability index stood at 4.33 ± 0.2 (treatment: DMSO) and 4.57 ± 0.24 (treatment: MLN4924 1 uM, 8 h).

On to KHRIRRVLIVDWDVHHGQGTQFTF [HDAC6], for which the protein stability index is, setting by setting: (treatment: DMSO) 3.35 ± 0.42; (treatment: MLN4924 1 uM, 8 h) 3.14 ± 0.83.

KICESLNVPVDDSLVKELLRMCSH [EFHC1]: the protein stability index was 2.11 ± 0.21 (treatment: DMSO) and 2.09 ± 0.44 (treatment: MLN4924 1 uM, 8 h).

The sequence KIEGHQDAVTAALLIPKEDGVITA [WDFY1] showed a protein stability index (treatment: DMSO) of 4.35 ± 0.23 and a protein stability index (treatment: MLN4924 1 uM, 8 h) of 4.4 ± 0.28.

On to KIMGVEEEDDDDDDDDNLPQLKKE [ANKRD40], for which the protein stability index was 5.6 ± 0.24 (treatment: DMSO) and 5.46 ± 0.19 (treatment: MLN4924 1 uM, 8 h).

Consider KKHGTQNKRAALQALKRKKRFEKQ [CHMP4C], for which the protein stability index (treatment: DMSO) turned out to be 4.52 ± 0.3 and the protein stability index (treatment: MLN4924 1 uM, 8 h) is 4.52 ± 0.19.

Consider KLAKVYSYAHGWMFQGWNCGDYFP [CPN1], for which the protein stability index is, setting by setting: (treatment: DMSO) 2.52 ± 0.43; (treatment: MLN4924 1 uM, 8 h) 2.52 ± 0.38.

Turning to KLFYFKIWAFLDVSFVERILKSQK [FBXO39], the protein stability index (treatment: DMSO) was found to be 2.62 ± 0.74 and the protein stability index (treatment: MLN4924 1 uM, 8 h) stood at 2.47 ± 0.5.

For KLSCLFAGPHSTLTPPCSPPEDGL [SNX8], the protein stability index is, setting by setting: (treatment: DMSO) 3.25 ± 0.18; (treatment: MLN4924 1 uM, 8 h) 3.19 ± 0.4.

Take KNFFKKAAAALFGGKKDKARYIDT [PLK2]: the protein stability index runs as follows: (treatment: DMSO) 1.95 ± 0.33; (treatment: MLN4924 1 uM, 8 h) 2.4 ± 0.63.

On to KNRSFDIDAIYSVIDDAKQYVYIA [PLD5], for which the protein stability index reads like this: (treatment: DMSO) 2.75 ± 0.55; (treatment: MLN4924 1 uM, 8 h) 2.47 ± 0.71.

KPVDMWACGVILYILLVGYPPFWD [CAMK2D] showed a protein stability index (treatment: DMSO) of 3.46 ± 0.29 and a protein stability index (treatment: MLN4924 1 uM, 8 h) of 3.36 ± 0.41.

Regarding KPYGCVECGKAFSRSSILVQHQRV [ZNF24], the protein stability index (treatment: DMSO) was 2.07 ± 0.17 and the protein stability index (treatment: MLN4924 1 uM, 8 h) stood at 2.11 ± 0.2.

For KQIIRKHAQTFVALCATDVKFISN [CCND1], the protein stability index came out at 2.26 ± 0.1 (treatment: DMSO) and 2.39 ± 0.055 (treatment: MLN4924 1 uM, 8 h).

Consider KQLVSPAAALLSNTTCQTENRLSV [PTGFR], for which the protein stability index runs as follows: (treatment: DMSO) 3.74 ± 0.25; (treatment: MLN4924 1 uM, 8 h) 3.99 ± 0.2.

On to KQNPGKFCLLSCGILTFLAVLGRY [RETREG3], for which the protein stability index worked out at 2.33 ± 0.55 (treatment: DMSO) and 2.54 ± 0.37 (treatment: MLN4924 1 uM, 8 h).

With KQNPSRQEVTKLQQQVKTNGAGVT [FBXO28], the protein stability index reads like this: (treatment: DMSO) 4.68 ± 0.2; (treatment: MLN4924 1 uM, 8 h) 4.47 ± 0.35.

Regarding KRTIIPTLVEAIKEQDGREVDWEY [DFFB], the protein stability index (treatment: DMSO) worked out at 4.14 ± 0.11 and the protein stability index (treatment: MLN4924 1 uM, 8 h) turned out to be 4.36 ± 0.42.

Take KSMHREELEKSGHGQAGQRQDPRP [ZBED2]: the protein stability index by setting is: (treatment: DMSO) 5.21 ± 0.13; (treatment: MLN4924 1 uM, 8 h) 5.2 ± 0.3.

In turn, KSNQPKSLEDLIFESLPENASHKL [ATE1] returned a protein stability index (treatment: DMSO) of 4.28 ± 0.21 and a protein stability index (treatment: MLN4924 1 uM, 8 h) of 4.5 ± 0.14.

KSSKYGEGHQAWIVGIVEKGNRTA [SEPHS2] came in with a protein stability index (treatment: DMSO) of 2.56 ± 0.19 and a protein stability index (treatment: MLN4924 1 uM, 8 h) of 2.56 ± 0.42.

Regarding KSSVYRRYNDFVVFQEMLLHKFPY [SNX8], the protein stability index was found to be 2.45 ± 0.65 (treatment: DMSO) and 2.24 ± 0.39 (treatment: MLN4924 1 uM, 8 h).

Consider KSVLIPVYGVSKETFLSFLEYLYT [RHOBTB3], for which the protein stability index came to 2.24 ± 0.38 (treatment: DMSO) and 2.22 ± 0.15 (treatment: MLN4924 1 uM, 8 h).

Turning to KSVMLQIAATELEKEESRREAEKQ [TNNI2], the protein stability index (treatment: DMSO) amounted to 5.07 ± 0.092 and the protein stability index (treatment: MLN4924 1 uM, 8 h) came to 5.25 ± 0.26.

KVHTVPKPGKGADLSKPPCRKAKE [ATE1] gave a protein stability index (treatment: DMSO) of 4.94 ± 0.24 and a protein stability index (treatment: MLN4924 1 uM, 8 h) of 5.125 ± 0.046.

Take KVRQLERDNAELEKLIQERSQQQE [KRT34]: the protein stability index amounted to 5.17 ± 0.22 (treatment: DMSO) and 5.28 ± 0.24 (treatment: MLN4924 1 uM, 8 h).

Regarding KYSLLKLTALLEKYTPSNKHGFSW [DLC1], the protein stability index is 2.65 ± 0.42 (treatment: DMSO) and 2.6 ± 0.61 (treatment: MLN4924 1 uM, 8 h).

As for LAGLTRPDVRPPLGRGLVGGQEEA [SEPHS2], the protein stability index reads like this: (treatment: DMSO) 4.86 ± 0.094; (treatment: MLN4924 1 uM, 8 h) 4.92 ± 0.083.

Take LALGVSLLCNAITGITLLRVKFKS [PTGFR]: the protein stability index (treatment: DMSO) turned out to be 2.88 ± 0.48 and the protein stability index (treatment: MLN4924 1 uM, 8 h) was determined as 2.73 ± 0.37.

For the sequence LATQSLTVETCRALGKLLPRETLC [LRRC45], the protein stability index is 2.44 ± 0.49 (treatment: DMSO) and 2.48 ± 0.45 (treatment: MLN4924 1 uM, 8 h).

For LCWDPVQRVLFSGSSDHSVIMWDI [WDFY2], the protein stability index reads like this: (treatment: DMSO) 2.26 ± 0.34; (treatment: MLN4924 1 uM, 8 h) 1.93 ± 0.45.

The sequence LDKLNFEAINFCRGLGSQASTVTE [ACSBG2] came in with a protein stability index (treatment: DMSO) of 3.36 ± 0.5 and a protein stability index (treatment: MLN4924 1 uM, 8 h) of 3.71 ± 0.24.

In the case of LDKMLDPQVWREAATQVFFALGLG [SLC6A17], the protein stability index by setting is: (treatment: DMSO) 2.52 ± 0.68; (treatment: MLN4924 1 uM, 8 h) 2.25 ± 0.28.

For LDPDSKENAQIIYSLAEDTIQGVP [PCDHGA10], the protein stability index (treatment: DMSO) is 4.64 ± 0.15 and the protein stability index (treatment: MLN4924 1 uM, 8 h) is 4.56 ± 0.23.

LEAEIATYRRLLEDGEDFNLGDAL [KRT18]: the protein stability index by setting is: (treatment: DMSO) 4.41 ± 0.15; (treatment: MLN4924 1 uM, 8 h) 4.53 ± 0.25.
